Test results reported in patent US20170058005A1 (priority 2014, published 2017).
Entries after “also recorded” stand apart in the source; their conditions may differ.

Experiments:
DRB1*0401 (DR4) = DRB1*0401 (DR4) (Homo sapiens, UniProt P01903+P01911, A100K/A169T/F76Y/I96L/K127E/L162R/M171V/N62H/P40V/Q125Y/R42H/S133A/S149N/S66Y/V115G/V209L/W38E); assay type: binding
DRB1*0101 (DR1) = DRB1*0101 (DR1) (Homo sapiens, UniProt P01903+P01911, A100R/D57E/F55L/F60I/F76Y/I96L/L162R/M171V/P40L/Q125E/R42F/V115G/Y59C); assay type: binding
HLA-DR molecules = assay type: binding, human
human PBMCs = assay type: cell-based
DRB1*1101 (DR11) = DRB1*1101 (DR11) (Homo sapiens, UniProt P01903+P01911, A100R/A169T/A87E/I96F/K41T/L162R/M171V/P40S/Q125H/Q178H/Q39Y/Q99D/R42S/S66Y/T262R/V115G/W38E); assay type: binding
DRB1*1501 (DR15) = DRB1*1501 (DR15) (Homo sapiens, UniProt P01903+P01911); assay type: binding
DRB1*1301 (DR13) = DRB1*1301 (DR13) (Homo sapiens, UniProt P01903+P01911, A100E/A169T/K41T/L162R/M171V/P40S/Q125H/Q178H/Q39Y/Q99D/R42S/S66N/T262R/W38E/Y61H); assay type: binding
DRB1*0701 (DR7) = DRB1*0701 (DR7) (Homo sapiens, UniProt P01903+P01911, A100R/A102G/A103Q/D57E/D86V/E43K/F76Y/K127E/L162R/M171V/P40G/Q125H/Q99D/R33Q/R42Y/R54Q/S133A/S66F/T210M/V115G/Y107V/Y59L/Y89S); assay type: binding
DRB1*0301 (DR3) = DRB1*0301 (DR3) (Homo sapiens, UniProt P01903+P01911, A100K/A102G/A103R/A169T/F55Y/I96L/K41T/L162R/M171V/P40S/Q125H/Q178H/Q39Y/R42S/S66N/T106N/T262R/W38E/Y61H); assay type: binding
[1] = test system: CD4^+ T cells of HLA class II transgenic mice; assay type: cell-based

Sequence: KIYLYENMNINNLTATLGAD
- Relative binding affinity of peptide to HLA-DR molecules, DR4 (DRB1*0401 (DR4)): 0.2
- Strong relative binding affinity of peptide to HLA-DR molecules, DR4 (DRB1*0401 (DR4)): + (key: +: Strong binding affinity was defined in this study as a relative activity <10)
- Relative binding affinity of peptide to HLA-DR molecules, DR1 (DRB1*0101 (DR1)): 0.2
- Strong relative binding affinity of peptide to HLA-DR molecules, DR1 (DRB1*0101 (DR1)): + (key: +: Strong binding affinity was defined in this study as a relative activity <10)
- Binding across all HLA-DR alleles assayed (HLA-DR molecules): strong binding affinity across all HLA-DR alleles assayed
- Binding to HLA-DR1, DR4 and DR15 (HLA-DR molecules): strong binders to all three HLA-DR alleles
- T cell recognition in human cohorts (human PBMCs): recognized by a high proportion of naturally infected donors, but not vaccinated individuals
- Relative binding affinity of peptide to HLA-DR molecules, DR11 (DRB1*1101 (DR11)): 5
- Strong relative binding affinity of peptide to HLA-DR molecules, DR11 (DRB1*1101 (DR11)): + (key: +: Strong binding affinity was defined in this study as a relative activity <10)
- Relative binding affinity of peptide to HLA-DR molecules, DR15 (DRB1*1501 (DR15)): 0.1
- Strong relative binding affinity of peptide to HLA-DR molecules, DR15 (DRB1*1501 (DR15)): + (key: +: Strong binding affinity was defined in this study as a relative activity <10)
- Relative binding affinity of peptide to HLA-DR molecules, DR13 (DRB1*1301 (DR13)): 17
- Relative binding affinity of peptide to HLA-DR molecules, DR7 (DRB1*0701 (DR7)): 5
- Strong relative binding affinity of peptide to HLA-DR molecules, DR7 (DRB1*0701 (DR7)): + (key: +: Strong binding affinity was defined in this study as a relative activity <10)
- Relative binding affinity of peptide to HLA-DR molecules, DR3 (DRB1*0301 (DR3)): 1
- Strong relative binding affinity of peptide to HLA-DR molecules, DR3 (DRB1*0301 (DR3)): + (key: +: Strong binding affinity was defined in this study as a relative activity <10)
- CD4 T cell response in LF immunized HLA transgenics [1]: recognised by all LF immunized HLA transgenics; also recorded: capable of eliciting a T cell response from all the HLA transgenics; also recorded: immunogenic in all three HLA-DR transgenic strains
- HLA-restriction based on CD4 T cell response class II HLA transgenics after priming with LF [1]: DR1, DR4, DR15,; also recorded: DQ8, DQ6
- Peptide-specific recall response [1]: strongest peptide recall in both groups
